Results taken from patent publication US20230174608A1 (published 2023).
*1 amine or outer side, *2 acyl side, *3 side chain or, on linkers, in order; H or OH if unused. Where no end group is shown, it is not given here. Side-chain parts run from the residue outwards. [ ]: non-standard residue; d: D form. The star is where a group is joined. C18 diacid = O=C(O)CCCCCCCCCCCCCCCCC(=O)*; γGlu = O=C(O)[C@H](CCC(=O)[*:2])N[*:1]; AEEA = NCCOCCOCC(=O)O; Aib = CC(C)(N)C(=O)O

Columns and labels:
[1] = target: GLP-1 receptor (GLP-1R), stably expressed on HEK293 cells; test: cell-based or functional assay
[2] = target: Glucagon receptor (GCGR), stably expressed on HEK293 cells; test: cell-based or functional assay

Binder	GLP-1R (nM EC50), receptor-mediated cAMP production in HEK293 cells [1] [nM]	GCGR (nM EC50), receptor-mediated cAMP production in HEK293 cells [2] [nM]
HXQGTFTSDYSKYLEERAAKEFIAWLESGG (HELM PEPTIDE1{H.[Aib].Q.G.T.F.T.S.D.Y.S.K.Y.L.E.E.R.A.A.K.E.F.I.A.W.L.E.S.G.G.[am]}|PEPTIDE2{[CCCCCCCCCCCCCCCC(=O)[*:2]].[gGlu].[gGlu]}$PEPTIDE1,PEPTIDE2,20:R3-3:R2$$$V2.0; N-terminus assumed; SMILES CCCCCCCCCCCCCCCC(=O)N[C@@H](CCC(=O)N[C@@H](CCC(=O)NCCCC[C@H](NC(=O)[C@H](C)NC(=O)[C@H](C)NC(=O)[C@H](CCCNC(=N)N)NC(=O)[C@H](CCC(=O)O)NC(=O)[C@H](CCC(=O)O)NC(=O)[C@H](CC(C)C)NC(=O)[C@H](Cc1ccc(O)cc1)NC(=O)[C@H](CCCCN)NC(=O)[C@H](CO)NC(=O)[C@H](Cc1ccc(O)cc1)NC(=O)[C@H](CC(=O)O)NC(=O)[C@H](CO)NC(=O)[C@@H](NC(=O)[C@H](Cc1ccccc1)NC(=O)[C@@H](NC(=O)CNC(=O)[C@H](CCC(N)=O)NC(=O)C(C)(C)NC(=O)[C@@H](N)Cc1c[nH]cn1)[C@@H](C)O)[C@@H](C)O)C(=O)N[C@@H](CCC(=O)O)C(=O)N[C@@H](Cc1ccccc1)C(=O)N[C@H](C(=O)N[C@@H](C)C(=O)N[C@@H](Cc1c[nH]c2ccccc12)C(=O)N[C@@H](CC(C)C)C(=O)N[C@@H](CCC(=O)O)C(=O)N[C@@H](CO)C(=O)NCC(=O)NCC(N)=O)[C@@H](C)CC)C(=O)O)C(=O)O) [dgc010]	0.537	0.614
H[Aib]QGTFTSDYSKYLEERAAKEFIAWLEAGG-NH2 (not fully specified (residue 20)) [dgc011]	0.955	4.13
H[dS]QGTFTSDYSKYLEERAAK([AEEA-AEEA-γGlu-C18 diacid])EFVAWLEGG-NH2 (N-terminus assumed; SMILES CC(C)C[C@H](NC(=O)[C@H](Cc1c[nH]c2ccccc12)NC(=O)[C@H](C)NC(=O)[C@@H](NC(=O)[C@H](Cc1ccccc1)NC(=O)[C@H](CCC(=O)O)NC(=O)[C@H](CCCCNC(=O)COCCOCCNC(=O)COCCOCCNC(=O)CC[C@H](NC(=O)CCCCCCCCCCCCCCCCC(=O)O)C(=O)O)NC(=O)[C@H](C)NC(=O)[C@H](C)NC(=O)[C@H](CCCNC(=N)N)NC(=O)[C@H](CCC(=O)O)NC(=O)[C@H](CCC(=O)O)NC(=O)[C@H](CC(C)C)NC(=O)[C@H](Cc1ccc(O)cc1)NC(=O)[C@H](CCCCN)NC(=O)[C@H](CO)NC(=O)[C@H](Cc1ccc(O)cc1)NC(=O)[C@H](CC(=O)O)NC(=O)[C@H](CO)NC(=O)[C@@H](NC(=O)[C@H](Cc1ccccc1)NC(=O)[C@@H](NC(=O)CNC(=O)[C@H](CCC(N)=O)NC(=O)[C@@H](CO)NC(=O)[C@@H](N)Cc1c[nH]cn1)[C@@H](C)O)[C@@H](C)O)C(C)C)C(=O)N[C@@H](CCC(=O)O)C(=O)NCC(=O)NCC(N)=O) [dgc012]	0.044	2.17

More lines, now with the values ahead:

GLP-1R (nM EC50), receptor-mediated cAMP production in HEK293 cells [1] [nM]	GCGR (nM EC50), receptor-mediated cAMP production in HEK293 cells [2] [nM]	Binder
0.319	1.99	HXQGTFTSDYSKYLDERAAKEFIAWLEGG (HELM PEPTIDE1{H.[Aib].Q.G.T.F.T.S.D.Y.S.K.Y.L.D.E.R.A.A.K.E.F.I.A.W.L.E.G.G.[am]}|PEPTIDE2{[CCCCCCCCCCCCCCCC(=O)[*:2]].[gGlu].[gGlu]}$PEPTIDE1,PEPTIDE2,20:R3-3:R2$$$V2.0; N-terminus assumed; SMILES CCCCCCCCCCCCCCCC(=O)N[C@@H](CCC(=O)N[C@@H](CCC(=O)NCCCC[C@H](NC(=O)[C@H](C)NC(=O)[C@H](C)NC(=O)[C@H](CCCNC(=N)N)NC(=O)[C@H](CCC(=O)O)NC(=O)[C@H](CC(=O)O)NC(=O)[C@H](CC(C)C)NC(=O)[C@H](Cc1ccc(O)cc1)NC(=O)[C@H](CCCCN)NC(=O)[C@H](CO)NC(=O)[C@H](Cc1ccc(O)cc1)NC(=O)[C@H](CC(=O)O)NC(=O)[C@H](CO)NC(=O)[C@@H](NC(=O)[C@H](Cc1ccccc1)NC(=O)[C@@H](NC(=O)CNC(=O)[C@H](CCC(N)=O)NC(=O)C(C)(C)NC(=O)[C@@H](N)Cc1c[nH]cn1)[C@@H](C)O)[C@@H](C)O)C(=O)N[C@@H](CCC(=O)O)C(=O)N[C@@H](Cc1ccccc1)C(=O)N[C@H](C(=O)N[C@@H](C)C(=O)N[C@@H](Cc1c[nH]c2ccccc12)C(=O)N[C@@H](CC(C)C)C(=O)N[C@@H](CCC(=O)O)C(=O)NCC(=O)NCC(N)=O)[C@@H](C)CC)C(=O)O)C(=O)O) [dgc013]
0.899	1.53	HXQGTFTSDYSKYLEERAAKEFIAWLEGG (HELM PEPTIDE1{H.[Aib].Q.G.T.F.T.S.D.Y.S.K.Y.L.E.E.R.A.A.K.E.F.I.A.W.L.E.G.G.[am]}|PEPTIDE2{[CCCCCCCCCCCCCCCC(=O)[*:2]].[gGlu]}$PEPTIDE1,PEPTIDE2,20:R3-2:R2$$$V2.0; N-terminus assumed; SMILES CCCCCCCCCCCCCCCC(=O)N[C@@H](CCC(=O)NCCCC[C@H](NC(=O)[C@H](C)NC(=O)[C@H](C)NC(=O)[C@H](CCCNC(=N)N)NC(=O)[C@H](CCC(=O)O)NC(=O)[C@H](CCC(=O)O)NC(=O)[C@H](CC(C)C)NC(=O)[C@H](Cc1ccc(O)cc1)NC(=O)[C@H](CCCCN)NC(=O)[C@H](CO)NC(=O)[C@H](Cc1ccc(O)cc1)NC(=O)[C@H](CC(=O)O)NC(=O)[C@H](CO)NC(=O)[C@@H](NC(=O)[C@H](Cc1ccccc1)NC(=O)[C@@H](NC(=O)CNC(=O)[C@H](CCC(N)=O)NC(=O)C(C)(C)NC(=O)[C@@H](N)Cc1c[nH]cn1)[C@@H](C)O)[C@@H](C)O)C(=O)N[C@@H](CCC(=O)O)C(=O)N[C@@H](Cc1ccccc1)C(=O)N[C@H](C(=O)N[C@@H](C)C(=O)N[C@@H](Cc1c[nH]c2ccccc12)C(=O)N[C@@H](CC(C)C)C(=O)N[C@@H](CCC(=O)O)C(=O)NCC(=O)NCC(N)=O)[C@@H](C)CC)C(=O)O) [dgc015]
0.516	0.821	HXQGTFTSDYSKYLDERAAKEFIAWLEGG (HELM PEPTIDE1{H.[Aib].Q.G.T.F.T.S.D.Y.S.K.Y.L.D.E.R.A.A.K.E.F.I.A.W.L.E.G.G.[am]}|PEPTIDE2{[CCCCCCCCCCCCCCCC(=O)[*:2]].[gGlu]}$PEPTIDE1,PEPTIDE2,20:R3-2:R2$$$V2.0; N-terminus assumed; SMILES CCCCCCCCCCCCCCCC(=O)N[C@@H](CCC(=O)NCCCC[C@H](NC(=O)[C@H](C)NC(=O)[C@H](C)NC(=O)[C@H](CCCNC(=N)N)NC(=O)[C@H](CCC(=O)O)NC(=O)[C@H](CC(=O)O)NC(=O)[C@H](CC(C)C)NC(=O)[C@H](Cc1ccc(O)cc1)NC(=O)[C@H](CCCCN)NC(=O)[C@H](CO)NC(=O)[C@H](Cc1ccc(O)cc1)NC(=O)[C@H](CC(=O)O)NC(=O)[C@H](CO)NC(=O)[C@@H](NC(=O)[C@H](Cc1ccccc1)NC(=O)[C@@H](NC(=O)CNC(=O)[C@H](CCC(N)=O)NC(=O)C(C)(C)NC(=O)[C@@H](N)Cc1c[nH]cn1)[C@@H](C)O)[C@@H](C)O)C(=O)N[C@@H](CCC(=O)O)C(=O)N[C@@H](Cc1ccccc1)C(=O)N[C@H](C(=O)N[C@@H](C)C(=O)N[C@@H](Cc1c[nH]c2ccccc12)C(=O)N[C@@H](CC(C)C)C(=O)N[C@@H](CCC(=O)O)C(=O)NCC(=O)NCC(N)=O)[C@@H](C)CC)C(=O)O) [dgc014]
